Data taken from PMC12455602.

Experiments:
[1] = biological target: SscR^Ac after H2Sn treatment (persulfidated SscR^Ac) (Acidithiobacillus caldus); test: SEC
[2] = biological target: SscR^Ac (RSS-sensitive transcription factor in copper stress response), MarR family transcriptional regulator of Acidithiobacillus caldus (Acidithiobacillus caldus); test: SEC

Row | stoichiometry N [1] | stoichiometry N [2] | Substance
1 | 4 |  | SscR^Ac after H2Sn treatment (persulfidated SscR^Ac) (natural protein)
2 |  | 4 | SscR^Ac (RSS-sensitive transcription factor in copper stress response), MarR family transcriptional regulator of Acidithiobacillus caldus (natural protein)
